According to paper PMC10681739, “High-throughput data and modeling reveal insights into the mechanisms of cooperative DNA-binding by transcription factor proteins”:

B1: Table S2 A row 1124 (dsDNA)
DNA 1: ATCTTTTGATGAGGATGTGGTTTCCAGGCAGGTGCT
DNA 2: AGCACCTGCCTGGAAACCACATCCTCATCAAAAGAT
B2: Table S2 A row 233 (dsDNA)
DNA 1: TCCTATATACTTCCGTTTGCCTCGCGGTTTCTTTCT
DNA 2: AGAAAGAAACCGCGAGGCAAACGGAAGTATATAGGA
B3: Table S2 A row 238 (dsDNA)
DNA 1: GCGCGGACAGAGAAAGGATGTGGTATAGCAGAAAGT
DNA 2: ACTTTCTGCTATACCACATCCTTTCTCTGTCCGCGC
B4: Table S2 A row 995 (dsDNA)
DNA 1: GCGCCCTCCAGGAAACGCCGCGGTTTACTGTCTGCC
DNA 2: GGCAGACAGTAAACCGCGGCGTTTCCTGGAGGGCGC
B5: Table S2 A row 274 (dsDNA)
DNA 1: ATGCCTTCTTCCAGAGGATGTGGTCGCTACTAGTGG
DNA 2: CCACTAGTAGCGACCACATCCTCTGGAAGAAGGCAT
B6: Table S2 A row 585 (dsDNA)
DNA 1: TGTATGAAAAAAACAGGAAACCACAGAGAACTGAGG
DNA 2: CCTCAGTTCTCTGTGGTTTCCTGTTTTTTTCATACA
B7: Table S2 A row 552 (dsDNA)
DNA 1: AACCATTACAGGATGTGAGATTCAAACCACTAACAG
DNA 2: CTGTTAGTGGTTTGAATCTCACATCCTGTAATGGTT
B8: Table S2 A row 34 (dsDNA)
DNA 1: GGAGGTGGGGAGGAAGTTCTGAAACCACACACATTT
DNA 2: AAATGTGTGTGGTTTCAGAACTTCCTCCCCACCTCC
B9: Table S2 A row 813 (dsDNA)
DNA 1: AAGTTGATTTCCGGGTAGTCTGTGGTTTCCTAATCA
DNA 2: TGATTAGGAAACCACAGACTACCCGGAAATCAACTT
B10: Table S2 A row 122 (dsDNA)
DNA 1: GAGAAACAGGAAGAGGGGTGGTGGTTACGGAACACG
DNA 2: CGTGTTCCGTAACCACCACCCCTCTTCCTGTTTCTC
B11: Table S2 A row 1400 (dsDNA)
DNA 1: AGCTGCATTTCCGGGCAGGCAATGAAACCACAGAGT
DNA 2: ACTCTGTGGTTTCATTGCCTGCCCGGAAATGCAGCT
B12: Table S2 A row 189 (dsDNA)
DNA 1: TGGCAGAGCACATCCTGTGCGGTTTTCAGTTTTGCT
DNA 2: AGCAAAACTGAAAACCGCACAGGATGTGCTCTGCCA
B13: Table S2 A row 442 (dsDNA)
DNA 1: GGAAAAGGAAGTGGCTTTGACTTGCGGGCAGGGAGA
DNA 2: TCTCCCTGCCCGCAAGTCAAAGCCACTTCCTTTTCC
B14: Table S2 A row 1756 (dsDNA)
DNA 1: GCCAACAGGAAGCTGGAAGCCAACCGCACTGTGTGC
DNA 2: GCACACAGTGCGGTTGGCTTCCAGCTTCCTGTTGGC
B15: Table S2 A row 505 (dsDNA)
DNA 1: ACCCAGTAGGGGCCAGGATGTGGTGAAAAGAGAATT
DNA 2: AATTCTCTTTTCACCACATCCTGGCCCCTACTGGGT
B16: Table S2 A row 1553 (dsDNA)
DNA 1: GAAGGAAGTGGAGACAGTAAGGGGAAACCACAAACC
DNA 2: GGTTTGTGGTTTCCCCTTACTGTCTCCACTTCCTTC
B17: Table S2 A row 386 (dsDNA)
DNA 1: AACTGGGCGGAAAGAACGGCTAACCGCAAGCTGCCG
DNA 2: CGGCAGCTTGCGGTTAGCCGTTCTTTCCGCCCAGTT
B18: Table S2 A row 1216 (dsDNA)
DNA 1: CCCGGCCACTTCCGCCTATTGCGGGCGTCGGCTAGG
DNA 2: CCTAGCCGACGCCCGCAATAGGCGGAAGTGGCCGGG
B19: Table S2 A row 18 (dsDNA)
DNA 1: GAGGCAGGCGGATGTCAGTGTGGTTAGAGCACAGTG
DNA 2: CACTGTGCTCTAACCACACTGACATCCGCCTGCCTC
B20: Table S2 A row 1390 (dsDNA)
DNA 1: CTGTGACACGTGCGGAAGCTGTGGTAAGTGCATCCA
DNA 2: TGGATGCACTTACCACAGCTTCCGCACGTGTCACAG
B21: Table S2 A row 1293 (dsDNA)
DNA 1: AGGTCGCCCTCCGGATGCGGTCCCCACACCGCCTGC
DNA 2: GCAGGCGGTGTGGGGACCGCATCCGGAGGGCGACCT
B22: Table S2 A row 1407 (dsDNA)
DNA 1: TGTGTATGAGAACGGATATAGGTGGTTTTATAAGGA
DNA 2: TCCTTATAAAACCACCTATATCCGTTCTCATACACA
B23: Table S2 A row 149 (dsDNA)
DNA 1: TTCAACAGGATATTGCTTTGTTACCACAGGCCCTTT
DNA 2: AAAGGGCCTGTGGTAACAAAGCAATATCCTGTTGAA
B24: Table S2 A row 791 (dsDNA)
DNA 1: CGGCAGGCAAGCAGGAAACCGCGAGTGGAGAAAGGG
DNA 2: CCCTTTCTCCACTCGCGGTTTCCTGCTTGCCTGCCG
B25: Table S2 A row 328 (dsDNA)
DNA 1: AGTAGAGGAGGAAGTTAAATGTGGTTTTCTGGGTGG
DNA 2: CCACCCAGAAAACCACATTTAACTTCCTCCTCTACT
B26: Table S2 A row 464 (dsDNA)
DNA 1: AGCGACAGCGGATGCTCTCTGGCCGCAACATTCTTT
DNA 2: AAAGAATGTTGCGGCCAGAGAGCATCCGCTGTCGCT
B27: Table S2 A row 1108 (dsDNA)
DNA 1: CATGGGGAGGAGGAAGTGGTGGCGGCCGCAGGCCAG
DNA 2: CTGGCCTGCGGCCGCCACCACTTCCTCCTCCCCATG
B28: Table S2 A row 1340 (dsDNA)
DNA 1: CATTTCAGTCCAGGATGTGGGTGCACACACCGCTTC
DNA 2: GAAGCGGTGTGTGCACCCACATCCTGGACTGAAATG
B29: Table S2 A row 340 (dsDNA)
DNA 1: CAGAGCAGAGAGGAAGTGGTGGTGGCCACAGTCCCA
DNA 2: TGGGACTGTGGCCACCACCACTTCCTCTCTGCTCTG
B30: Table S2 A row 1415 (dsDNA)
DNA 1: AGGCTGTGTGAAGGATGTGGTCAGGCGGAGGCCAGG
DNA 2: CCTGGCCTCCGCCTGACCACATCCTTCACACAGCCT
B31: Table S2 A row 294 (dsDNA)
DNA 1: GCAGGACTTCCTGTGTTGTGCTAACCTCAAATTACA
DNA 2: TGTAATTTGAGGTTAGCACAACACAGGAAGTCCTGC
B32: Table S2 A row 762 (dsDNA)
DNA 1: CAGAAAGAGGAAATGATGCGAGTCCACACCGCAGGC
DNA 2: GCCTGCGGTGTGGACTCGCATCATTTCCTCTTTCTG
B33: Table S2 A row 1686 (dsDNA)
DNA 1: TGAGCCTTGGAAGGAAATGATTCACCACAATACTGT
DNA 2: ACAGTATTGTGGTGAATCATTTCCTTCCAAGGCTCA
B34: Table S2 A row 108 (dsDNA)
DNA 1: CACTTCCTGTCAAAGCCAGTTCCTTAACCGCTTAGG
DNA 2: CCTAAGCGGTTAAGGAACTGGCTTTGACAGGAAGTG
B35: Table S2 A row 101 (dsDNA)
DNA 1: GAGGGACAGGATGCCGCCAGGAACCACAAGAGCTTC
DNA 2: GAAGCTCTTGTGGTTCCTGGCGGCATCCTGTCCCTC
B36: Table S2 A row 1256 (dsDNA)
DNA 1: AGCCGTCATTCAGGATGTGGTGACAGACATGGAGAC
DNA 2: GTCTCCATGTCTGTCACCACATCCTGAATGACGGCT
B37: Table S2 A row 789 (dsDNA)
DNA 1: TCCCACTGCGACGGAAGCACAGCGGTTAAGATTGCA
DNA 2: TGCAATCTTAACCGCTGTGCTTCCGTCGCAGTGGGA
B38: Table S2 A row 195 (dsDNA)
DNA 1: GCTCCCGGATGTTCTGGGGATCTGCGGCCGCCTGGC
DNA 2: GCCAGGCGGCCGCAGATCCCCAGAACATCCGGGAGC
B39: Table S2 A row 1447 (dsDNA)
DNA 1: ACACCTCAGGAAGTGGCAGAGACCACAACAAGTCAG
DNA 2: CTGACTTGTTGTGGTCTCTGCCACTTCCTGAGGTGT
B40: Table S2 A row 240 (dsDNA)
DNA 1: CAGGCTCGCCACAGGGGAAGTGGTTAGGGCGGGTCC
DNA 2: GGACCCGCCCTAACCACTTCCCCTGTGGCGAGCCTG
B41: Table S2 A row 276 (dsDNA)
DNA 1: CAGCTGACAGGAAGGAGAGAACCACAGACAGTGCGA
DNA 2: TCGCACTGTCTGTGGTTCTCTCCTTCCTGTCAGCTG
B42: Table S2 A row 843 (dsDNA)
DNA 1: CCTTGCTACAGGATGTTTTGACCACGAGCCCAGGAG
DNA 2: CTCCTGGGCTCGTGGTCAAAACATCCTGTAGCAAGG
B43: Table S2 A row 1482 (dsDNA)
DNA 1: CCATCCAGGAAGCTTATGGTGCAACCGCAGTGTGCC
DNA 2: GGCACACTGCGGTTGCACCATAAGCTTCCTGGATGG
B44: Table S2 A row 692 (dsDNA)
DNA 1: TGCGAGGTTGCCAGGAAACCGCGAAGCCGAGGTCCC
DNA 2: GGGACCTCGGCTTCGCGGTTTCCTGGCAACCTCGCA

Molecular target: ETS1:RUNX1 (Homo sapiens, UniProt P14921;Q01196 full;full)
Sequence (P14921 whole entry, chain 1 of 2): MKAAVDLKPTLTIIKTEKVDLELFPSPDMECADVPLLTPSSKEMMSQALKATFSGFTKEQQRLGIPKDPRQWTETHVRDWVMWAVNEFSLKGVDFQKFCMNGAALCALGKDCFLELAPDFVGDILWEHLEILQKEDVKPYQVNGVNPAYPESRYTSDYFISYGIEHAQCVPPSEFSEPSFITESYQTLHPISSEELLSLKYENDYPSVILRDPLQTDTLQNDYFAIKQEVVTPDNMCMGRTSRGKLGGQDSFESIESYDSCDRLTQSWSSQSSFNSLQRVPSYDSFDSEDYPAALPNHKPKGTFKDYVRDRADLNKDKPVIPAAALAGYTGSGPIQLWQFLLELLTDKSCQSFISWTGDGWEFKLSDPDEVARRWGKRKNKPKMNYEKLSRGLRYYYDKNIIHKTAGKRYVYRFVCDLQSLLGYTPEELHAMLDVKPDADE
Sequence (Q01196 whole entry, chain 2 of 2): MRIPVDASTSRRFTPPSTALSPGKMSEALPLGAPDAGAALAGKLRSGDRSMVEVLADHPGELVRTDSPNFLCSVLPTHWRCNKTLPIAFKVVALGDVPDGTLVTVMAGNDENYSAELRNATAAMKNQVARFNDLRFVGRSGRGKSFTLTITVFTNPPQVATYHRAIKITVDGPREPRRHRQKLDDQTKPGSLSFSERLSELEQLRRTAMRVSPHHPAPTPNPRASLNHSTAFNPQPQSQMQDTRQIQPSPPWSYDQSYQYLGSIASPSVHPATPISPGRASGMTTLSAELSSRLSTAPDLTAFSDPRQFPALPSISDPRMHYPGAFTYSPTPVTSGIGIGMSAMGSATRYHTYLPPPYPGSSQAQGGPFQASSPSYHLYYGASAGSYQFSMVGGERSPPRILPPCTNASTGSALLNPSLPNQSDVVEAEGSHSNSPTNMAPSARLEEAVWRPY
Assay: gcPBM; 1 nM ETS1 + 25 nM RUNX1, anti-ETS1 signal, normalised
Conditions: tags: N-terminal GST (pDEST15), kept (PMC6008103); copies: 1;1; label: surface-attached array probe

Row | Binder | binding signal
1 | B1 | 4440 PBM fluorescence, median of replicate spots
2 | B2 | 4400 PBM fluorescence, median of replicate spots
3 | B3 | 4350 PBM fluorescence, median of replicate spots
4 | B4 | 4310 PBM fluorescence, median of replicate spots
5 | B5 | 4270 PBM fluorescence, median of replicate spots
6 | B6 | 4240 PBM fluorescence, median of replicate spots
7 | B7 | 4190 PBM fluorescence, median of replicate spots
8 | B8 | 4160 PBM fluorescence, median of replicate spots
9 | B9 | 4110 PBM fluorescence, median of replicate spots
10 | B10 | 4040 PBM fluorescence, median of replicate spots
11 | B11 | 3930 PBM fluorescence, median of replicate spots
12 | B12 | 3840 PBM fluorescence, median of replicate spots
13 | B13 | 3710 PBM fluorescence, median of replicate spots
14 | B14 | 3630 PBM fluorescence, median of replicate spots
15 | B15 | 3620 PBM fluorescence, median of replicate spots
16 | B16 | 3570 PBM fluorescence, median of replicate spots
17 | B17 | 3490 PBM fluorescence, median of replicate spots
18 | B18 | 3350 PBM fluorescence, median of replicate spots
19 | B19 | 3320 PBM fluorescence, median of replicate spots
20 | B20 | 3240 PBM fluorescence, median of replicate spots
21 | B21 | 3170 PBM fluorescence, median of replicate spots
22 | B22 | 3120 PBM fluorescence, median of replicate spots

Row | Binder | binding signal
23 | B23 | 3020 PBM fluorescence, median of replicate spots
24 | B24 | 2990 PBM fluorescence, median of replicate spots
25 | B25 | 2960 PBM fluorescence, median of replicate spots
26 | B26 | 2940 PBM fluorescence, median of replicate spots
27 | B27 | 2880 PBM fluorescence, median of replicate spots
28 | B28 | 2860 PBM fluorescence, median of replicate spots
29 | B29 | 2770 PBM fluorescence, median of replicate spots
30 | B30 | 2710 PBM fluorescence, median of replicate spots
31 | B31 | 2660 PBM fluorescence, median of replicate spots
32 | B32 | 2620 PBM fluorescence, median of replicate spots
33 | B33 | 2590 PBM fluorescence, median of replicate spots
34 | B34 | 2540 PBM fluorescence, median of replicate spots
35 | B35 | 2530 PBM fluorescence, median of replicate spots
36 | B36 | 2490 PBM fluorescence, median of replicate spots
37 | B37 | 2460 PBM fluorescence, median of replicate spots
38 | B38 | 2440 PBM fluorescence, median of replicate spots
39 | B39 | 2380 PBM fluorescence, median of replicate spots
40 | B40 | 2340 PBM fluorescence, median of replicate spots
41 | B41 | 2270 PBM fluorescence, median of replicate spots
42 | B42 | 2240 PBM fluorescence, median of replicate spots
43 | B43 | 2210 PBM fluorescence, median of replicate spots
44 | B44 | 2180 PBM fluorescence, median of replicate spots
